Target: AD8 WT Env (gp160, from lysed pseudovirions / on pseudovirus) (HIV-1 AD8, clade B)
Test: cell-based or functional assay

Binder | IC50 (read off the curve); axis Neutralisation (%), panel AD8 [ng/mL]
1842 heavy chain with NC-Cow1 light chain (antibody) VH: KVQLQESGPSLVKPSQTLSLTCTASGFSLSDKAVGWVRQAPGQALEWLGSIDTGGNADYNPGLKSRLSITKDNAKSQVSLSVSSVTTEGSATYYCSTVHQKTLRSCPSDYPYICDCEDTGSHCCRATNCPYYCNHGRDRMCTGRTYTYEWHVEAWGQGLLVTVSS VL: HSYELTQPSSVSGSLGQRVSVTCSGSSSNVGNGYVSWYQLIPGSAPRTIIYGDTSRASGVPERFSGSRSGNTATLTISSLQAEDEADFFCASPDDSSSNAVFGSGTTLTVL | ~5
1872 heavy chain with NC-Cow1 light chain (antibody) VH: KVQLRESGPSLVKPSQTLSLTCTASGFSLSDKAVGWVRQAPGQPLEWLGTIDTTGNAVYNPGLKSRLSITKDNSKSQVSLSLSSVTTEDSATYHCSTVHQKTRRSCPSDYSFICDCEGTGSHCCRASNCPYYCNYGRDRMCTGRSNIHEWHVDAWGQGLLVTVSS VL: HSYELTQPSSVSGSLGQRVSVTCSGSSSNVGNGYVSWYQLIPGSAPRTIIYGDTSRASGVPERFSGSRSGNTATLTISSLQAEDEADFFCASPDDSSSNAVFGSGTTLTVL | ~7
VRC01 (antibody, V domains shown) VH: QVQLVQSGGQMKKPGESMRISCRASGYEFIDCTLNWIRLAPGKRPEWMGWLKPRGGAVNYARPLQGRVTMTRDVYSDTAFLELRSLTVDDTAVYFCTRGKNCDYNWDFEHWGRGTPVIVSS VL: EIVLTQSPGTLSLSPGETAIISCRTSQYGSLAWYQQRPGQAPRLVIYSGSTRAAGIPDRFSGSRWGPDYNLTISNLESGDFGVYYCQQYEFFGQGTKVQVDI | ~300

Source: patent publication US20230272048A1 (UNIVERSITY OF MELBOURNE, published 2023)
